# Positions count from the first letter of the chain named.
# T1: Human Nectin-4 Protein, His Tag (human, UniProt Q96NY8 32-349)
# T1 construct: not shown: His tag
# T1 sequence (looked up): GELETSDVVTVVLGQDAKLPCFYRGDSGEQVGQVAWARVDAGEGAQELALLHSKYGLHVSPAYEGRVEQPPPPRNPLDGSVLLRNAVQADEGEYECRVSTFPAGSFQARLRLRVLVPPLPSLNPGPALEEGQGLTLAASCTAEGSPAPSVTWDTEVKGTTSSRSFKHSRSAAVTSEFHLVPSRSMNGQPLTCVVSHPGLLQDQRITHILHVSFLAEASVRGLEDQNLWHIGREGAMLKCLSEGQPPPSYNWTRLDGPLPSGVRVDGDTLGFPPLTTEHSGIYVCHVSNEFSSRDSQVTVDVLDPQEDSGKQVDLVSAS
# T2: Mouse Nectin-4 Protein, His Tag (mouse, UniProt Q8R007 31-347)
# T2 construct: not shown: His tag
# T2 sequence (looked up): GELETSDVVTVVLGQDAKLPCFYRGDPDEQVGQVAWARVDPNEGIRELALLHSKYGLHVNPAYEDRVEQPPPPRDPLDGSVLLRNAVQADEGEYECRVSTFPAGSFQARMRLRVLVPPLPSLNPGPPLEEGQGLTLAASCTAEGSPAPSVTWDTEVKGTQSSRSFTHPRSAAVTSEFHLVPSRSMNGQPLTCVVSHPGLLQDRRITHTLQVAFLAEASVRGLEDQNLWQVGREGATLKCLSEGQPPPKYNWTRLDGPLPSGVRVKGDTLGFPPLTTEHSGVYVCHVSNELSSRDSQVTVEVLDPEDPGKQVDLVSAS
# T3: Recombinant Rat Nectin-4 His-tag Protein, CF (rat, UniProt D3ZET1 31-348)
# T3 construct: not shown: His tag
# T3 sequence: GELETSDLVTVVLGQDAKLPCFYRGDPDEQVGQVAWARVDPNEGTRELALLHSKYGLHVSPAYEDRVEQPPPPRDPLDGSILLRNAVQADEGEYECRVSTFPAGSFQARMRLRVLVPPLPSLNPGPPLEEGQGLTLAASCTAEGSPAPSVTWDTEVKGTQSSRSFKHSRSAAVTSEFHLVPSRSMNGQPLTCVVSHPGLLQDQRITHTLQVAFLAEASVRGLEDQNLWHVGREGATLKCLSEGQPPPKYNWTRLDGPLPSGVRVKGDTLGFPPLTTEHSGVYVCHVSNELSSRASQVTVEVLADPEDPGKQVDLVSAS
# T4: Cynomolgus Nectin-4 Protein, His Tag (cynomolgus, UniProt A0A2K5WES1 32-349)
# T4 construct: not shown: His tag
# T4 sequence: T1 sequence (looked up) with V39A, I230V
# T5: Recombinant Rat Nectin-4 His-tag Protein, CF (rat) (UniProt D3ZET1)
# T5 sequence: T3 sequence
# B1: PADCEV (antibody, INN chains, looked up, V domains shown)
# VH: EVQLVESGGGLVQPGGSLRLSCAASGFTFSSYNMNWVRQAPGKGLEWVSYISSSSSTIYYADSVKGRFTISRDNAKNSLSLQMNSLRDEDTAVYYCARAYYYGMDVWGQGTTVTVSS
# VL: DIQMTQSPSSVSASVGDRVTITCRASQGISGWLAWYQQKPGKAPKFLIYAASTLQSGVPSRFSGSGSGTDFTLTISSLQPEDFATYYCQQANSFPPTFGGGTKVEIKR
# modifications: vedotin (MMAE) payload
# B2: humanized antibody SWY2001-Ab3 (antibody, human IgG1, kappa, V domains shown)
# VH: QVQLVQSGAEVKKPGASVKVSCKASGYTFTSYYIHWVRQAPGQRLEWMGWIYPGNVNTKYNENFRDRVTITRDTSASTAYMELSSLRSEDTAVYYCARGIYYFDYWGQGTLVTVSS
# VL: AIQMTQSPSSLSASVGDRVTITCKASQSVNNDVAWYQQKPGKAPKLLIYYASNRDTGVPSRFSGSGSGTDFTLTISSLQPEDFATYFCHQDYSSPFTFGGGTKVEIKR
# notes: Full-length IgG1, kappa
# B3: humanized antibody SWY2001-Ab1 (antibody, human IgG1, kappa, V domains shown)
# VH: B2 VH
# VL: B2 VL with A1I, S9K, S10F, K42Q, A43S, S60D
# B4: humanized antibody SWY2001-Ab2 (antibody, human IgG1, kappa, V domains shown)
# VH: B2 VH
# VL: B2 VL with P80A, F83L, T85V
# notes: Full-length IgG1, kappa
# B5: Chimeric antibody (antibody, V domains shown)
# VH: QVQLQQSGPVLVKPGASVRISCKASGYTFTSYYIHWVKQRPGQGLEWIGWIYPGNVNTKYNENFRDKATLTADKSSSTSYMQLSSLTSEDSAVYFCARGIYYFDYWGQGTTLTVSS
# VL: IIVMTQTPKFLLVSAGDRVTITCKASQSVNNDVAWYQEKPGQSPKLLIYYASNRDTGVPDRFTGSGYGTDFTFTISTVQAEDLAVYFCHQDYSSPFTFGSGTKLEIK
# notes: also called chimeric anti-Nectin-4 antibody; murine antibody variable regions on human IgG1
# Target: T1, Human Nectin-4 Protein, His Tag
# Experiment: ELISA, Nectin-4 protein with antibody dilutions, goat anti-human IgG secondary antibody
# Procedure: (§1) The affinities of Nectin-4 humanized antibodies to Nectin-4 proteins of different species were performed by ELISA. Nectin-4 proteins of different species (human Nectin-4, cynomolgus Nectin-4, rat Nectin-4, mouse Nectin-4) were incubated with Nectin-4 humanized antibody samples of different concentrations, and then incubated with the secondary antibody which binds IgG (Goat anti-Human IgG (H+L) Cross-Adsorbed Secondary Antibody. The signal values of different concentrations were detected by ELISA to analyze the affinities of the samples to Nectin-4 proteins of different species. The experimental results are shown in Table 6, showing that the Nectin-4 humanized antibodies have good affinity for human, rat and cynomolgus Nectin-4 proteins.
row,Binder,EC50 [µg/mL]
1,B1,0.000877
2,B2,0.00102
3,B3,0.00121
4,B4,0.00113

# Target: T2, Mouse Nectin-4 Protein, His Tag
# Experiment: as above
# Procedure: as §1
row,Binder,EC50 [µg/mL]
1,B1,0.0824
2,B2,2210
3,B4,1050

# Target: T3, Recombinant Rat Nectin-4 His-tag …
# Experiment: as above
# Procedure: as §1
row,Binder,EC50 [µg/mL]
1,B2,0.000942
2,B3,0.000857
3,B4,0.000726

# Target: T4, Cynomolgus Nectin-4 Protein, His Tag
# Experiment: as above
# Procedure: as §1
row,Binder,EC50 [µg/mL]
1,B2,0.000832
2,B3,0.000647
3,B4,0.000646

# Target: T1, Human Nectin-4 Protein, His Tag
# Experiment: BLI (Fortebio), antibody with human Nectin-4 protein
# Procedure: In this experiment, Fortebio was used to detect the affinity of Nectin-4 humanized antibodies to human Nectin-4 protein. After the Nectin-4 protein was incubated with the anti-Nectin-4 antibody sample, the signal value was detected by Fortebio to analyze the affinity of the sample to human Nectin-4. […] The chimeric antibodies were engineered on the basis of mouse-derived antibodies, and the constant region is selected from human IgG1.
Binder,Kd [nM],koff [s⁻¹],kon [M⁻¹ s⁻¹]
B5,2.8,0.00181,646000
B2,5.08,0.00425,836000
B3,5.92,0.00447,756000
B4,5.51,0.00414,752000

# Target: T5, Recombinant Rat Nectin-4 His-tag Protein, CF (rat)
# Experiment: ELISA, Nectin-4 protein with antibody dilutions, goat anti-human IgG secondary antibody
row,Binder,EC50 [µg/mL]
1,B1,0.00101

# Target: Cynomolgus Nectin-4 Protein, His Tag (cynomolgus)
# Experiment: as above
row,Binder,EC50 [µg/mL]
1,B1,0.000968

# Reference: patent US20240366778A1 (CSPC MEGALITH BIOPHARMARCEUTICAL, published 2024)
